Data on three substances can be found in US20160185837A1, “GIP AND GLP-1 RECEPTOR DUAL-AGONISTS FOR THE TREATMENT OF DIABETES” (Medimmune Limited, priority 2013, published 2016).

What all share (assay): cell-based or functional assay
The target of experiment [1] is mouse GLP-1 receptor (mouse) (UniProt O35659).
Experiment [2] addresses rat GLP-1 receptor (rat) (UniProt P32301).
For experiment [3], the target named is T1, human GIP receptor (human) (UniProt P48546).
T1 sequence (looked up): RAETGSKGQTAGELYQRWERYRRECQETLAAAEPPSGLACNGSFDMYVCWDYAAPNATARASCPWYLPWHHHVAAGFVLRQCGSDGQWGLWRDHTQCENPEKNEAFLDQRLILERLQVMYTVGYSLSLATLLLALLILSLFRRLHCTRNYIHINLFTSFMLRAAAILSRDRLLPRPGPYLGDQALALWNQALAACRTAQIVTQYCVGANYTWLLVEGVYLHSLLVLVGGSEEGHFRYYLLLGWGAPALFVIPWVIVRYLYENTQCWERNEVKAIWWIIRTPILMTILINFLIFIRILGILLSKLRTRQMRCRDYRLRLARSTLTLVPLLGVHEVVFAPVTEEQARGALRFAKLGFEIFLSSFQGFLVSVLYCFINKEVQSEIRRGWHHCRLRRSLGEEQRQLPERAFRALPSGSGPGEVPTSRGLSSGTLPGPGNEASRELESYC

In experiment [4] the target is cynomolgus monkey GLP-1 receptor (cynomolgus monkey) (UniProt F8V479).
Experiment [5] addresses cynomolgus monkey glucagon receptor (cynomolgus monkey).

Chain of mouse GLP-1 receptor (mouse) (O35659 22-463): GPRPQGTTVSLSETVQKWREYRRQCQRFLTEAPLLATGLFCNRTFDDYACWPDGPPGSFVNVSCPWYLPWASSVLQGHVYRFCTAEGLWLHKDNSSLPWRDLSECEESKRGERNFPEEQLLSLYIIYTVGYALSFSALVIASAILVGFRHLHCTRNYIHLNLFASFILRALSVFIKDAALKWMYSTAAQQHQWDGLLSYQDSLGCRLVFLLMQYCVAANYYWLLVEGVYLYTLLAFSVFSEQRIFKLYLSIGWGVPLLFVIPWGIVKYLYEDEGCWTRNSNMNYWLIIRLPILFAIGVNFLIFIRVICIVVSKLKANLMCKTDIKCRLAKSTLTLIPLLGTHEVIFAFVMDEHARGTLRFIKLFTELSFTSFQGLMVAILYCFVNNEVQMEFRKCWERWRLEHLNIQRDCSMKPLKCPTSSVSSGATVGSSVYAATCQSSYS
Chain of cynomolgus monkey GLP-1 receptor (cynomolgus monkey) (F8V479 entry or part of it): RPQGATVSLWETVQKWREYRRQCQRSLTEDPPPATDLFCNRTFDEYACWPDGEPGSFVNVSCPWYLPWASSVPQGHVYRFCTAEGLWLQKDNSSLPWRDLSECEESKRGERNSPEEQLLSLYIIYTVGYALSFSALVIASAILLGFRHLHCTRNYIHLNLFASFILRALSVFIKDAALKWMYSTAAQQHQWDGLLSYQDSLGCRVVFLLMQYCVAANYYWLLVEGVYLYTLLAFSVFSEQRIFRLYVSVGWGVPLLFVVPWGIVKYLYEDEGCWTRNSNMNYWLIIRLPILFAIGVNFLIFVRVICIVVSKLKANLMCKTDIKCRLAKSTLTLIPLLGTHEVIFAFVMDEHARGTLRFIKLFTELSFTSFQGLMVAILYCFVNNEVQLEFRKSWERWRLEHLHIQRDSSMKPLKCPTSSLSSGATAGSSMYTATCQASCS
Chain of rat GLP-1 receptor (rat) (P32301 22-463): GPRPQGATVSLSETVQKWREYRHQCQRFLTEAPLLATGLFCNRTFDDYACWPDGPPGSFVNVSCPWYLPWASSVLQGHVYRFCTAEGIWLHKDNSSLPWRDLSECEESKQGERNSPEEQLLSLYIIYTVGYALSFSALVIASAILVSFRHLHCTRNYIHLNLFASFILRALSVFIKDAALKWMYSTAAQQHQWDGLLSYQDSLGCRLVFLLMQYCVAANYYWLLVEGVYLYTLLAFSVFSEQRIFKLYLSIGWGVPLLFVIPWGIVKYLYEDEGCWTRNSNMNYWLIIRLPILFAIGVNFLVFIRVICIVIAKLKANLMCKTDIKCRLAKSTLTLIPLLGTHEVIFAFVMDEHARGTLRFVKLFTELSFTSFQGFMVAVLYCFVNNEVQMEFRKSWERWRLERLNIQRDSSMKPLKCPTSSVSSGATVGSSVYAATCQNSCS

For “glucagon (from UniProt P01275 53-81) (peptide)”, the results for the cAMP EC50 in experiment [1] and in experiment [2] were 1.8 nM and 0.54 nM, respectively.

In turn, human GIP (peptide) displayed a cAMP EC50 in experiment [3] of 0.0047 nM.

In the case of liraglutide (peptide), the cAMP EC50, 4.2% cyno serum albumin is 0.025 nM in experiment [4] and over 1000 nM in experiment [5].
